This assay deals with soluble ectodomain of ICAM-1 (intercellular adhesion molecule-1), domains D1 to D5 (UniProt P05362 28-480). Description: cryo-EM structure.

Experimental findings from publication PMC8126848 (Proceedings of the National Academy of Sciences of the …, 2021) are described below.

Sequence of soluble ectodomain of ICAM-1 (intercellular adhesion molecule-1), domains D1 to D5 (P05362 28-480): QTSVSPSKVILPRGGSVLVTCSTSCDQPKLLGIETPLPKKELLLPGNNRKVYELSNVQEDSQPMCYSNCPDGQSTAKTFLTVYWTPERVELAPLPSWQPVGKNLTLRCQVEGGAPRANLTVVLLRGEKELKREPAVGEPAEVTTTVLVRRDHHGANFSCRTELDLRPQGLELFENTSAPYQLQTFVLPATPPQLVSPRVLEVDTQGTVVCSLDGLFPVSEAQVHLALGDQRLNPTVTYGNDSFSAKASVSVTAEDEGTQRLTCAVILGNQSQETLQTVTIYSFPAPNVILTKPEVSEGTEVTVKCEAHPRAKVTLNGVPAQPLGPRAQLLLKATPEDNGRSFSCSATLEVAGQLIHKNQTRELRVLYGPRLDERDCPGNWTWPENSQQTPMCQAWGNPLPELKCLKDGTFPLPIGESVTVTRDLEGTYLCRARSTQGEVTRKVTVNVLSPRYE

B1: rhinovirus 14 capsid protein VP2 (natural protein, rhinovirus 14 (strain 1059), UniProt P03303 70-331, looked up)
chain: SPNVEACGYSDRVQQITLGNSTITTQEAANAVVCYAEWPEYLPDVDASDVNKTSKPDTSVCRFYTLDSKTWTTGSKGWCWKLPDALKDMGVFGQNMFFHSLGRSGYTVHVQCNATKFHSGCLLVVVIPEHQLASHEGGNVSVKYTFTHPGERGIDLSSANEVGGPVKDVIYNMNGTLLGNLLIFPHQFINLRTNNTATIVIPYINSVPIDSMTRHNNVSLMVIPIAPLTVPTGATPSLPITVTIAPMCTEFSGIRSKSIVPQ
Regarding B1, the binding result is on record as “binds”.
